One protein from FireProtDB (doi:10.1016/0022-2836(91)90566-o) can be followed below.

The conditions of this series: Enterobacteria phage fd; pH 7; 25 °C; GdnHCl; CD; MOPS 50 mM; NaCl 100 mM; reversible: yes; whole UniProt chain shown.

B1: DNA-Binding protein G5P wild type, P69542 (protein)
chain: MIKVEIKPSQAQFTTRSGVSRQGKPYSLNEQLCYVDLGNEYPVLVKITLDEGQPAYAPGLYTVHLSSFKVGQFGSLMIDRLRLVPAK
In the case of B1, the denaturant m value turned out to be 3.6 kcal/mol/M, the “denaturant midpoint (higher = more stable)” value turned out to be 2.61 M and the unfolding free energy came to 9 kcal/mol.
